Among the data in publication PMC6804595 (2018) are Kd values, retold here.

Where a chain is given by its changes, count along the chain named.

Common to all, as to assay: SPR
For orientation: Surface plasmon resonance follows binding to a sensor surface in real time, without labels.

One experiment concerns the target T1, CD147 D65A (human).
T1 chain: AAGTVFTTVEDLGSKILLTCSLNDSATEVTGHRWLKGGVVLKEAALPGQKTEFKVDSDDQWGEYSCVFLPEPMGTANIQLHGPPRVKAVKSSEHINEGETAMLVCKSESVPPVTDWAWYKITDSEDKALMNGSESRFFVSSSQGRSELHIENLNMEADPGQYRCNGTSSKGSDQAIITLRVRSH

Another experiment addresses T2, CD147 L62A (human).
T2 chain: T1 chain with L41A, A44D

In another experiment the target is T3, CD147 K63A (human).
T3 chain: T1 chain with K42A, A44D

For the next experiment, the target named is T4, CD147 E64A (human).
T4 chain: T1 chain with E43A, A44D

For experiment [1], the target named is T5, ectodomain of CD147 (CD147_(ecto)), wild type (human).
T5 chain: T1 chain with A44D

In experiment [2] the target is T6, CD147 K63A/D65A double mutant (human).
T6 chain: T1 chain with K42A

In a further experiment the target is CD147 V61A.

B1: anti-CD147 mAb 5A12 (antibody, V domains shown)
VH: EVKLEESGGGLVQPGGSMKLSCVASGFTFSNYWMHWVRQSPEKGLEWVAEIRLKSINYATHYAESVKGRFTISRDDSKSSVYLQMNNLRTEDTGIYYCTSYDYEYWGQGTLITVSA
VL: NIVMTQSPKSMSMSVGERVTLSCKASEIVGTYVSWYQQKPEQSPKLLIYGASNRYTGVPDRFTGSGSATDFTLTISSVQAEDLADYHCGQSYSYPFTFGSGTKLEIK
Turning to B1, the Kd (usually the free concentration of one partner at which half of the binding sites on the other are occupied at equilibrium, for simple one-to-one binding) is 12.7 nM with CD147 D65A; 2.71 nM with CD147 L62A; 576 nM with CD147 K63A; 7.07 nM with CD147 E64A; 0.566 nM in experiment [1]; 115 nM in experiment [2]. In the experiment with CD147 V61A, this molecule registered a Kd of 0.97 nM.
